This note sets out measurements from patent US20090203038A1 (AbbVie / Abbott, published 2009).

This assay deals with T1, biotinylated cyclic BNP (1-32c) (human, biotinylated; cyclic).
T1 construct: also called human BNP
The experiment in a line: flow cytometry, yeast-displayed scFv, biotinylated cyclic BNP (1-32c) detected with SA:PE. The method, then: Dilutions of the transformation reaction were plated on selective glucose plates (2% glucose (0.67% yeast nitrogen base, 0.105% HSM-trp-ura, 1.8% bacterial agar, 18.2% sorbitol, 0.86% NaH₂PO₄H₂O, 1.02% Na₂HPO₄ 7H₂O)) and incubated at 30° C. for 48-72 hours. Selective glucose media was inoculated with individual colonies and grown shaking at 30° C. for 16-20 hours. Protein expression was induced in colonies by transferring 0.5 OD600 of cells/ml (1e7 cells/0.5 OD/ml) to selective galactose media. Colonies were shaken at 20° C. for 16-24 hours and then analyzed by the FACS Aria flow cytometer for binding to cyclic BNP (referred to as “1-32c”) (SEQ ID NO:10) and anti-V5.
For orientation: A flow cytometer gives signals particle by particle.

T1 sequence (peptide, as listed by the source): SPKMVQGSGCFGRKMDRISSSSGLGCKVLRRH

B1: 3-631-436 scFv (wildtype), displayed on the surface of yeast (scFv)
scFv: QVQLQQPGAELVRPGASVKLSCKASGYTFTSYWMNWVKQRPEQGLEWIGRIDPYDSETHYNQKFKDKAILTVDKSSSTAFVQLTSLTSEDSAVYYCVSDGYWGAGTTVTVSSGPAKELTPLKEAKVSDVVMTQTPLTLSVTTGQPASISCKSSQSLLDSDGKTYLNWLFQRPGESPKLLIYVVSKLESGVPDRFTGSGSGTDFTLKISRVEAEDLGVYYCLQATHFPWTFGGGTKLEIKRAAALESRGPFEGKPIPNPLLGLDSTRTGHHHHHH
In the case of B1, the binding result is “binds”.
